In patent US20090048196A1 (University of California, published 2009) one finds Kd data, which are given here for 1 molecule.

The target in this assay is N-terminal alkaline phosphatase-tagged RBP (AP-RBP fusion protein) (human, UniProt P02753 19-201). Description: AP-RBP binding to live COS-1 cells transfected with bovine STRA6, AP activity read-out.

Experimental: The cells were then washed twice with PBS⁺ and fixed in fresh 2% formaldehyde in PBS⁺ at room temperature for 10 min. After 3 more PBS washes, the cells were heated in PBS for 1 h at 65° C. […] The reaction was stopped by washing cells twice with PBS containing 1 mM CaCl₂. The cells were then lysed in 200 μl of cold PBS containing 1% Triton X-100 and protease inhibitors per well. The cell lysates were centrifuged at 3,000 g at 4° C. for 5 min. The supernatants were removed and heated at 65° C. for 1 h. Twenty microliters of the heated lysate were mixed with 200 μl of pNPP (Sigma) and incubated at 37° C. for 1 h for the AP color reaction. The reactions were stopped by adding 50 μl 3 M NaOH and were transferred to a 96-well plate for reading in a microplate reader at 405 nm.

B1: bovine STRA6 (wild-type) (receptor)
chain: MSTQAAGNQTSSGATDSEDSYDSWYIDEPQGGQELQPEGLVPSCQPNVPPSLYHTCLAVLSILVLFLLAMLVRRRQLWPRCGHGRPGLPSPVDFLTGDRPRTVPAAVFMVLFSSLCLLLPTEDPLPFLSLASPPGRDGEAETSRGPWKILALLYYPALYYPLAACATVRHGAAHLLGSLLSWAHLGVQVWQRAECPESPKIYKYYSLLASLPLLLGLGFLSLWYPVQLVRSFGHGAATGSKGLQSSYSEEYLRTLLCQKKLKSSSHTCKRGFASQAWMYFRHSVYIPQQGFRLPLKLVLSVTLTGTAIYQVALLLLVGVVPTIQKVRAGITTDVSYLLAGFGIVLSEDRQEVVELVKHHLWALEVCYISALVLSCLLTFLMLVHSLVTHRTNLRALHRGGALDIGPLTQSPRPSRQAIFCWMSFTAYQTAFTCLGLLVQQILFFLGTLTLAFLVFMPMLHGRNLLLLHYLKSSWPFWLTLALAVTLQNAAAHWAFLDTHHGRPGLTNRRALYAATFLLFPVNVLVGTMVAAWRVLLSALYNAVHLGRMDLSLLPLRAATLDPGYHTYCNFLRMEASQSHPAATAFCALLLRTQRPKPRATPQDGLRLGEEEEGIQLLQTKDLVAKGAGPRARQGRARWGLAYTLLHNPALQAFRKTALPGARPNGAQP
notes: also called RBP receptor; WT
Broadly, the Kd is the equilibrium constant for the complex coming apart. B1: the Kd came out at 59 nM.
